Results published in publication PMC12002136.

Target: exportin 1 (XPO1, CRM1) (UniProt O14980)
Assay: anti-HA
Conditions: reference: wild type; sites S182

YTHDF1 (from UniProt Q9BYJ9) S182A
binding against the reference: stronger
